Earlier results, collected in article PMC11105488.

Tests used:
FGFR1c (Homo sapiens) = FGFR1c (Homo sapiens) (UniProt P11362)
FGFR2c (Homo sapiens) = FGFR2c (Homo sapiens) (UniProt P21802)
FGFR4 (Homo sapiens) = FGFR4 (Homo sapiens) (UniProt P22455)
Sequence of UniProt P22455 (P22455 22-369): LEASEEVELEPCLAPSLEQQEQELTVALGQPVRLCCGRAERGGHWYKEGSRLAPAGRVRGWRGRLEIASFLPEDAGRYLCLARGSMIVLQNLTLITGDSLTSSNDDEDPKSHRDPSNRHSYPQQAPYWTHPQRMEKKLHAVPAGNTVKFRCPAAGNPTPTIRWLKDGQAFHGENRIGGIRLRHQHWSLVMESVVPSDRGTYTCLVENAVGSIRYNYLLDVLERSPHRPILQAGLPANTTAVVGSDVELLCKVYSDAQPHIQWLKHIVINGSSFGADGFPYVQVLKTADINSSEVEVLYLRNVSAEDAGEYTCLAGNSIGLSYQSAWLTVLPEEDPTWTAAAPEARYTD

Sequence of UniProt P21802 (P21802 22-377): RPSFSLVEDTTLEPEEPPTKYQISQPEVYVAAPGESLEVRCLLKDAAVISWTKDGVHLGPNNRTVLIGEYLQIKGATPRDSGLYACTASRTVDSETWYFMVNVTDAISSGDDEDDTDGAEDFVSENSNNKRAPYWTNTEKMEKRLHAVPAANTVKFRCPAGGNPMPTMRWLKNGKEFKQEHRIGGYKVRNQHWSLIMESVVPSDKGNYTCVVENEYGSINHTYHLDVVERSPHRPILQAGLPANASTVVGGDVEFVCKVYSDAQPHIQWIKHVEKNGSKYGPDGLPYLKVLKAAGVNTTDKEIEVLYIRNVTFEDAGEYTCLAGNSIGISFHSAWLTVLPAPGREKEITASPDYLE
Sequence of UniProt P11362 (P11362 22-376): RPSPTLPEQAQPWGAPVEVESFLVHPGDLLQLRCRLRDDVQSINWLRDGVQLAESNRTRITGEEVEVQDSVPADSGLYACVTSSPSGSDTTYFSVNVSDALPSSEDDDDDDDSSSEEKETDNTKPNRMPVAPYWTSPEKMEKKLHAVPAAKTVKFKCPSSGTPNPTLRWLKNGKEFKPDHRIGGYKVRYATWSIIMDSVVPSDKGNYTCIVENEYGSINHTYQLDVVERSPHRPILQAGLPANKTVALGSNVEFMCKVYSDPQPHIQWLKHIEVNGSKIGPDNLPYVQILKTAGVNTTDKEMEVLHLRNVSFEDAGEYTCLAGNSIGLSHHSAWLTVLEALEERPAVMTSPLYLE

Kd (FGFR1c (Homo sapiens)): 0.7 µM
Kd (FGFR2c (Homo sapiens)): 0.2 µM
Kd (FGFR4 (Homo sapiens)): 0.2 µM
Substance: FGF23 (from UniProt Q9GZV9)
